# According to US10973762B2, “Active-targeting-type polymer derivative, composition containing said polymer derivative, and uses of said polymer derivative and said composition” (Nippon Kayaku Kabushiki Kaisha, priority 2016, dated 2021):
# Tests used:
# integrin αVβ3 = target: T1, integrin αVβ3 (Mus musculus, UniProt O54890+P43406); assay: Integrin binding assay (inhibition of biotinylated vitronectin binding); settings: dilution series, absorbance at 450 nm
# T1 construct: purchased R&D Systems, Inc
# T1 sequence (P43406 31-988 limits assumed): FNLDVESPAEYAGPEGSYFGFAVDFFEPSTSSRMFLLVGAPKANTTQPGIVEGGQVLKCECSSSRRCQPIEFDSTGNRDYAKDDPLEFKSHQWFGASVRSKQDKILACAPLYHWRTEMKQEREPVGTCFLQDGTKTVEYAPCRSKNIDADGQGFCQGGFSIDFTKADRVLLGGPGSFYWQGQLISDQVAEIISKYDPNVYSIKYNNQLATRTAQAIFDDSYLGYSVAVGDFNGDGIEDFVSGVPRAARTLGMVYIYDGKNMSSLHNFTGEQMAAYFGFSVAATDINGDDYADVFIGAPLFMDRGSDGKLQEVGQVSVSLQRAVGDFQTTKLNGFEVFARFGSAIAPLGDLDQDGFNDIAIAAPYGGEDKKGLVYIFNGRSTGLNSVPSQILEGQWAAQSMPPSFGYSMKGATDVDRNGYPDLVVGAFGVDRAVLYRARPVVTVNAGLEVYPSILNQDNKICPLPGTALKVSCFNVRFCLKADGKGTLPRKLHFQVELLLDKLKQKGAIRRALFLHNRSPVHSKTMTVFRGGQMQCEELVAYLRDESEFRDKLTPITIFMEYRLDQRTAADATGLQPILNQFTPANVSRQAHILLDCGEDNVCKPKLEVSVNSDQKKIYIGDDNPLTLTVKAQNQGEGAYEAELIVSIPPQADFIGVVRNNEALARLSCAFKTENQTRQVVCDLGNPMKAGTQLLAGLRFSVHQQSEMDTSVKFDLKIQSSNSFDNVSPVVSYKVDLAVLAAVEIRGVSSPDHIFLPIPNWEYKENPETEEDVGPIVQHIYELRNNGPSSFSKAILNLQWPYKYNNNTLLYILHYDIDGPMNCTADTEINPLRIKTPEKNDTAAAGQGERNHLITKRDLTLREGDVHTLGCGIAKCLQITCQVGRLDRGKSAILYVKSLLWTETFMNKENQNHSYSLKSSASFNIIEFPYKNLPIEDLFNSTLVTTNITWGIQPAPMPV
# T1 sequence (O54890 26-717 limits assumed): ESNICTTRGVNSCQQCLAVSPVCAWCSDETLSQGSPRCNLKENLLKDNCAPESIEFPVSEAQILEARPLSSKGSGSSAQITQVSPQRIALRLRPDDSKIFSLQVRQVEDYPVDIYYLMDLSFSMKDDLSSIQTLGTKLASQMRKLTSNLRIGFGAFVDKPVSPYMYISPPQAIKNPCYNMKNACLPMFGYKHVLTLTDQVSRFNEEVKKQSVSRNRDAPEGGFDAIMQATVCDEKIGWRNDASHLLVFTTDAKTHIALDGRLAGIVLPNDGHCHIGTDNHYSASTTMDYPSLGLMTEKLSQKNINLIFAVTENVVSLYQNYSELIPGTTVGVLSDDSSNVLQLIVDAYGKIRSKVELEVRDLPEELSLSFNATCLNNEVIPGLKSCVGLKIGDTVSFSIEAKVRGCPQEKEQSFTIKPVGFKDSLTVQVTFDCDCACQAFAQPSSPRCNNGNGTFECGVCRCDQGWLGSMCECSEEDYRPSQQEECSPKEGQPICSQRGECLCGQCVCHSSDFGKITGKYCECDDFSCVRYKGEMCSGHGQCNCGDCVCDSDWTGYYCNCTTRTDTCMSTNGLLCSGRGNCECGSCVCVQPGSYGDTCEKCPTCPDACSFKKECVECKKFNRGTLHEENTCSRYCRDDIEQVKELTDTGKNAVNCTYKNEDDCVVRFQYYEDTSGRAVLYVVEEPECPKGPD
# Procedure: 100 μL each of 1 μg/mL Recombinant Mouse Integrin alpha V beta 3 Protein (R&D Systems, Inc.) produced with PBS(−) was added to a 96-well Costar high capacity binding plate, and the plate was left to stand overnight at 4° C. to thereby bind integrin αVβ3 to the bottom face of the wells. Subsequently, integrin αVβ3 in the wells was removed by suctioning, and 200 μL of a Blocking/Binding buffer (50 mM Tris HCl at pH 7.4, 100 mM NaCl, 2 mM CaCl2, 1 mM MgCl2, 1 mM MnCl2, 1% BSA) was added to each well. Blocking was performed at an interval of one hour at room temperature.
# 100 μL of biotinylated vitronectin (1 μg/mL) obtained by biotinylated human recombinant vitronectin (Wako Pure Chemical Industries, Ltd.) was added in advance into each well using Biotin Labeling Kit-NH2 (Dojindo Molecular Technologies, Inc.), and the plate was left to stand at room temperature for 3 hours. Subsequently, the wells were washed three times using 200 μL of Blocking/Binding buffer, and 100 μL of streptavidin-HRP (GE Healthcare) diluted 10,000 times with the Blocking/Binding buffer was added to each well. The mixture was left to stand for one hour at room temperature. The wells were washed two times using 200 μL of the Blocking/Binding buffer. […]
# Within 30 minutes after the addition, the absorbance at 450 nm was measured, and the binding ratio of biotinylated vitronectin to integrin αVβ3 was calculated.
# [1] = Test Example 4: tissue distribution in kidney (fluorescence of sections); assay type: in vivo, nude mice; settings: i.v. 5 mg/kg in terms of fluorescent substance
# Procedure: (§1) A suspension of cultured cancer cell human glioma U87MG was subcutaneously transplanted on the dorsal sides of nude mice using an injection needle-attached syringe. Example 7, Comparative Example 2, and Comparative Example 3 were dissolved in a 5% glucose injectable solution, and each of the solutions was intravenously administered a single time in an amount of 5 mg/kg in terms of 2-(2-aminoethoxy)-9-(diethylamino)-5H-benzo[a]phenoxazin-5-one.
# (§2) After one hour and after 24 hours from the administration, the mice were exsanguinated under isoflurane anesthesia, and frozen embedded sections of extracted tumor and kidney were produced. Fluorescence derived from 2-(2-aminoethoxy)-9-(diethylamino)-5H-benzo[a]phenoxazin-5-one in the administered composition was observed.
# (§3) Furthermore, based on those images, the luminance was calculated using Image-Pro Premier (Media Cybernetics, Inc.), and the values of luminance of tumor tissue sections are shown in FIG. 9, while the values of luminance of kidney tissue sections are shown in FIG. 11.
# human glioma U87MG = assay: Test Example 4: tissue distribution in tumor (fluorescence of sections); assay type: in vivo, nude mice; settings: one hour after i.v. administration, 5 mg/kg in terms of fluorescent substance
# Procedure: as §1, §2, §3
# [2] = Average particle size, single nanoparticle size analyzer IG-1000; assay type: physicochemical
# Procedure: The measurement of the average particle size of the compositions including block copolymers of Examples 3 to 10 and Comparative Examples 1 to 6 was carried out using a single nanoparticle size analyzer, IG-1000, manufactured by Shimadzu Corp. (measurement temperature: 25° C., light intensity at t=0: 100 to 200).
# Regarding a sample for measuring the average particle size, a solution produced to have a concentration of 2 mg/mL or 5 mg/mL in terms of the composition weight and filtered through a 0.45-μm membrane filter, was used.
# [3] = Test for drug releasability into phosphate buffer solution; assay type: physicochemical; settings: phosphate buffer solution pH 7.4, 37° C., 6 hours, 1.0 mg/mL, absence of enzyme
# Procedure: Example 7, Example 8, and Comparative Example 3 were respectively dissolved in a phosphate buffer solution (pH 7.4) at a concentration of 1.0 mg/mL in terms of the composition weight, and the solutions were left to stand at a constant temperature of 37° C. The amount of 7-ethyl-10-hydroxycamptothecin (EHC) released was measured over time by HPLC, and the proportion of the amount of EHC released with respect to the total amount of EHC in the compound used was determined.
substance,measurement,setting,value
4-phenyl-1-butanol-bonded and 2-(2-aminoethoxy)-9-(diethylamino)-5H-benzo[a]phenoxazin-5-one-bonded product of polyethylene glycol (10 kilodaltons)-polyglutamic acid (21.0 polymerizations) block copolymer [Comparative Example 1],inhibition of binding of vitronectin and integrin αVβ3,integrin αVβ3,not recognized
7-ethyl-10-hydroxycamptothecin (EHC)-bonded and 2-(2-aminoethoxy)-9-(diethylamino)-5H-benzo[a]phenoxazin-5-one-bonded product of polyethylene glycol (2 kilodaltons)-polyglutamic acid (7.59 polymerizations) block copolymer [Comparative Example 3],distribution of fluorescence in kidney,[1],fluorescence was observed in the blood vessels and the renal tubules
same,distribution of fluorescence in tumor,human glioma U87MG,penetrated into the entire tumor compared to Comparative Example 2
same,average particle size,[2]; 2 mg/mL,13 nm
same,EHC release (proportion of EHC released with respect to total EHC),[3],61%
7-ethyl-10-hydroxycamptothecin (EHC)-bonded and 2-(2-aminoethoxy)-9-(diethylamino)-5H-benzo[a]phenoxazin-5-one-bonded product of polyethylene glycol (12 kilodaltons)-polyglutamic acid (22.0 polymerizations) block copolymer [Comparative Example 2],distribution of fluorescence in kidney,[1],fluorescence was not recognized in areas other than in the blood vessels
same,average particle size,[2]; 5 mg/mL,23 nm
